These results are taken from publication PMC12102760.

The assay concerns the target IgG 1C1. The assay can be described thus: BLI; IgG captured on anti-human biosensors, quenched with Fc; receptor ECD-Fc in solution, three-fold dilutions from 300 nM; PBS, 1% BSA, 0.05% Tween 20; 25°C; 1:1 binding model.

Sequence of IgG 1C1 (heavy, as listed by the source, chain 1 of 2): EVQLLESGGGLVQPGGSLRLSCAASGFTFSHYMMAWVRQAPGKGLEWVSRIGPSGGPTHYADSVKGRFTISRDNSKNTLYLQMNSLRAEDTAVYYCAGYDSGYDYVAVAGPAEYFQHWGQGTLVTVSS
Sequence of IgG 1C1 (light, as listed by the source, chain 2 of 2): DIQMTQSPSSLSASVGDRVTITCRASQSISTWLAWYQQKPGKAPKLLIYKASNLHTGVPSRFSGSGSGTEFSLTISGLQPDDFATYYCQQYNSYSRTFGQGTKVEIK

B1: EphA8-Fc (Fc fusion)
chain: ARGEVNLLDTSTIHGDWGWLTYPAHGWDSINEVDESFQPIHTYQVCNVMSPNQNNWLRTSWVPRDGARRVYAEIKFTLRDCNSMPGVLGTCKETFNLYYLESDRDLGASTQESQFLKIDTIAADESFTGADLGVRRLKLNTEVRSVGPLSKRGFYLAFQDIGACLAILSLRIYYKKCPAMVRNLAAFSEAVTGADSSSLVEVRGQCVRHSEERDTPKMYCSAEGEWLVPIGKCVCSAGYEERRDACVACELGFYKSAPGDQLCARCPPHSHSAAPAAQACHCDLSYYRAALDPPSSACTRPPSAPVNLISSVNGTSVTLEWAPPLDPGGRSDITYNAVCRRCPWALSRCEACGSGTRFVPQQTSLVQASLLVANLLAHMNYSFWIEAVNGVSDLSPEPRRAAVVNITTNQAAPSQVVVIRQERAGQTSVSLLWQEPEQPNGIILEYEIKYYEKDKEMQSYSTLKAVTTRATVSGLKPGTRYVFQVRARTSAGCGRFSQAMEVETGKPRPRYDTRT
Broadly, the Kd is a measure of binding affinity in units of concentration. The low end stands for a tighter complex, the high end for a looser complex. For the molecule B1, the Kd stood at 970 nM.
